# Measurements taken from patent US20240052042A1 (Novartis, published 2024).
# T1: human NPR1 on CHO-K1 cells (human, UniProt P16066 33-1061)
# T1 sequence: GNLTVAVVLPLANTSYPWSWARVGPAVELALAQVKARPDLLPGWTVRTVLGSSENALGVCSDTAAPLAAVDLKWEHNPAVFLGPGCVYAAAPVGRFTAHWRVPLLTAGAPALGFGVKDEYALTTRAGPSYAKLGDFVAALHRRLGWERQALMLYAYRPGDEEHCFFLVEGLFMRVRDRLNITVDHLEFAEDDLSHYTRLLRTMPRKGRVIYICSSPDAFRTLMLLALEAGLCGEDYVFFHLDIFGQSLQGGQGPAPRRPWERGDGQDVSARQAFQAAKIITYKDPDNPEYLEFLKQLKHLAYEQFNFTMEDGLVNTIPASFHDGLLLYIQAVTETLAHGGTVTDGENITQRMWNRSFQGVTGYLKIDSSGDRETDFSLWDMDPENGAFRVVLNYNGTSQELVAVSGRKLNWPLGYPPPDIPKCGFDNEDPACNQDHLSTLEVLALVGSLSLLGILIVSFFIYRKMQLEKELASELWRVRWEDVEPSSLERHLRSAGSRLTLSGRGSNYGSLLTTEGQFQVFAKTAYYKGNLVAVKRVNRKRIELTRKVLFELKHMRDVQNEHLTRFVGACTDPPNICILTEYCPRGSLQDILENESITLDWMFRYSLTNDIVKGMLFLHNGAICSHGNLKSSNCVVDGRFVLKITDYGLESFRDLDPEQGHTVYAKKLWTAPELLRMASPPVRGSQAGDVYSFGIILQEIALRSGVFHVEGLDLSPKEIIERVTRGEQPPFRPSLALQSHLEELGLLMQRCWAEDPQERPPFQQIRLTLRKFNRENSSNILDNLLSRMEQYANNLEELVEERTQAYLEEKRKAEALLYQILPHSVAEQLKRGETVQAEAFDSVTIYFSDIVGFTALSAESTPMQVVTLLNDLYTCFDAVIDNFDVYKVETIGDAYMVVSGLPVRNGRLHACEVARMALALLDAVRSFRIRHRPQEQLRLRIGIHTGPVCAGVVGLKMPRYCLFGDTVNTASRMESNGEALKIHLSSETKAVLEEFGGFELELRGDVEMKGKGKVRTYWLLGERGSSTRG
# T2: human NPR3 (counter target) (human, UniProt P17342 27-481, limits assumed)
# T2 construct: Pannings used hNPR3-hFc; also called hNPR3; hNPR3-hFc
# T2 sequence (looked up): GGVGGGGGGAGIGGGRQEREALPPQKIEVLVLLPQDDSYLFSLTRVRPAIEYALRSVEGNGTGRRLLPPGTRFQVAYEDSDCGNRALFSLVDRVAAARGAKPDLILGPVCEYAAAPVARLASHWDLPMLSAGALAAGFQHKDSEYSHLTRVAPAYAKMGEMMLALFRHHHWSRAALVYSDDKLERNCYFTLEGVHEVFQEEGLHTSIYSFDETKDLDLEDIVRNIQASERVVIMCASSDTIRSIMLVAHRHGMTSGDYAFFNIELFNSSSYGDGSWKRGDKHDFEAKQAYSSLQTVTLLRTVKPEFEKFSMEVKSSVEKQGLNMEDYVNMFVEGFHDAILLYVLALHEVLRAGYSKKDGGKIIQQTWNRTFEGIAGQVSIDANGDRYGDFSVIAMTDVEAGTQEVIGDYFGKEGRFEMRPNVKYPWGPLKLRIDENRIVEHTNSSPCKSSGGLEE
# T3: human NPR3 in the presence of ANP (human, UniProt P17342 27-481; P01160 124-151, limits assumed)
# T3 construct: also called hNPR3 + 100 nM ANP
# T3 sequence (looked up): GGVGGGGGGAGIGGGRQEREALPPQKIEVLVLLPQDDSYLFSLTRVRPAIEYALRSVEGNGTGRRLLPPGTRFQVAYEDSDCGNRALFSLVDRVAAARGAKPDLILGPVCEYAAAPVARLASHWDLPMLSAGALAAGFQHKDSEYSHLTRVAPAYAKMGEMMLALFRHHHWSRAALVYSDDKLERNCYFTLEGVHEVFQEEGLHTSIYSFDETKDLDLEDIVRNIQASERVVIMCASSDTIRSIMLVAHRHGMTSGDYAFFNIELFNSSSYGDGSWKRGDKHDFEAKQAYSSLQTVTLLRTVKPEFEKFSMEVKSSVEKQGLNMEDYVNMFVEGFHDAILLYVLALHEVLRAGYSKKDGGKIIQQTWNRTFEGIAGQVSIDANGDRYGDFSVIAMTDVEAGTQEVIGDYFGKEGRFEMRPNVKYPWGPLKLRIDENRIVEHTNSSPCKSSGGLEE
# T3 sequence (peptide, looked up): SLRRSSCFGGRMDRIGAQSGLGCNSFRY
# T4: human Natriuretic Peptide Receptor 1 (hNPR1) (human, UniProt P16066 33-473, limits assumed)
# T4 construct: pannings used NPR1-hFc; also called NPR1-hFc
# T4 sequence: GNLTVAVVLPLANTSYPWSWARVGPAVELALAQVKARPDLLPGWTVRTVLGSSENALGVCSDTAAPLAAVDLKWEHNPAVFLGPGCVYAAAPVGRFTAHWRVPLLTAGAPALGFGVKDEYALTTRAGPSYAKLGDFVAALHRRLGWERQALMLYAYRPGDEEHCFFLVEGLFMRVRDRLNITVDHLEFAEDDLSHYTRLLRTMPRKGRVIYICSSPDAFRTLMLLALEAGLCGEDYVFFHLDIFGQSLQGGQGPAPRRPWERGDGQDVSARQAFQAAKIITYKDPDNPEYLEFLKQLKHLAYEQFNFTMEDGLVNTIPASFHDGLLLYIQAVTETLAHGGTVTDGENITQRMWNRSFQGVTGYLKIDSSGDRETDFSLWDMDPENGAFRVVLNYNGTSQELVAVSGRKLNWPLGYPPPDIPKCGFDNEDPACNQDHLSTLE
# T5: hNPR1-ANP complex (human, UniProt P01160 124-151, limits assumed)
# T5 construct: hNPR1 antigen in the presence of ANP; also called hNPR1 + 100 nM ANP
# T5 sequence: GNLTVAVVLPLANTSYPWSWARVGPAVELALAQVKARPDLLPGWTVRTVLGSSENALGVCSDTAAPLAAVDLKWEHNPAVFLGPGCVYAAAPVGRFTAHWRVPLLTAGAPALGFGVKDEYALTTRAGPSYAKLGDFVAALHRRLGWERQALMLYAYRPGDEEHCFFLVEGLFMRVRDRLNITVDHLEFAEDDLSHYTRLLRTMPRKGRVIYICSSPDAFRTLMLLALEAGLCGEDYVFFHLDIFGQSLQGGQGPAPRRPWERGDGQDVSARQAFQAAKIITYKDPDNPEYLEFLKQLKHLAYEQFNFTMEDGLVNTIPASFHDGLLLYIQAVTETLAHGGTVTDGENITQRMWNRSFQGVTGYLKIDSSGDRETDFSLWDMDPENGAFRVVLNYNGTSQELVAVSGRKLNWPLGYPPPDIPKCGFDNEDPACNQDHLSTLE
# T5 sequence (peptide): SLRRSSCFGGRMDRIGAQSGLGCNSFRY
# T6: rat NPR1 (rNPR1) (rat, UniProt P18910 29-469, limits assumed)
# T6 construct: Soluble antigen
# T6 sequence: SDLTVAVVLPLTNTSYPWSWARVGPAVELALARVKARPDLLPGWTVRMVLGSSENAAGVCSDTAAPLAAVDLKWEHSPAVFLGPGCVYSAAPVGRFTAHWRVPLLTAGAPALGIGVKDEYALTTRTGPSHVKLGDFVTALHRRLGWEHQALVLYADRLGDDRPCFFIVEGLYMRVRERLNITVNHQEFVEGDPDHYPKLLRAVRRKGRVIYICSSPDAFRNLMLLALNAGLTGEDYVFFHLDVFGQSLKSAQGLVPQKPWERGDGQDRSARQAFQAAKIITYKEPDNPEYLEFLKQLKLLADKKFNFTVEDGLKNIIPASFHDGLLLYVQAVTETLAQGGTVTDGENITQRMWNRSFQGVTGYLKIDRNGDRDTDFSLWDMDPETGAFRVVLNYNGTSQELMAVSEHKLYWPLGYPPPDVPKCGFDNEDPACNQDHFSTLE
# T7: rNPR1-ANP complex (rat, UniProt P01160 124-151 (human entry), limits assumed)
# T7 construct: rNPR1 antigen in the presence of ANP; also called rNPR1 + 100 nM ANP
# T7 sequence: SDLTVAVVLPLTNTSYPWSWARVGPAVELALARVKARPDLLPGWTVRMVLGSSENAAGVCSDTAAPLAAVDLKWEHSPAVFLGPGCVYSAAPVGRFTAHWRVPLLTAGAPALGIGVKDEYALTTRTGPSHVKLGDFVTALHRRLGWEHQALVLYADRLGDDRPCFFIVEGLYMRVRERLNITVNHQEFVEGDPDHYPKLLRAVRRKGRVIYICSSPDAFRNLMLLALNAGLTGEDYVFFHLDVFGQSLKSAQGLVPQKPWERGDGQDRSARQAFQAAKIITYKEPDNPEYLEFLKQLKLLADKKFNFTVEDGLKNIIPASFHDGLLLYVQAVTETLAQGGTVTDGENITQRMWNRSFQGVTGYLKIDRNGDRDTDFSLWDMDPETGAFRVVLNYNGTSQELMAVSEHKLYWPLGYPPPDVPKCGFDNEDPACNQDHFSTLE
# T7 sequence (peptide): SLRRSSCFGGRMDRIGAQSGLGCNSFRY
# What was measured:
# [1] = molecular target: T1, human NPR1 on CHO-K1 cells; assay: cell-based or functional assay
# [2] = molecular target: T2, human NPR3 (counter target); assay: FabCys affinity determination
# [3] = molecular target: T3, human NPR3 in the presence of ANP; assay: FabCys affinity determination
# [4] = molecular target: T4, human Natriuretic Peptide Receptor 1 …; assay: FabCys affinity (Biacore per paragraph 323)
# hNPR1-ANP complex [5] = molecular target: T5, hNPR1-ANP complex; assay: FabCys affinity (Biacore per paragraph 323)
# rat NPR1 (rNPR1) [6] = molecular target: T6, rat NPR1 (rNPR1); assay: FabCys affinity (Biacore per paragraph 323)
# rNPR1-ANP complex [7] = molecular target: T7, rNPR1-ANP complex; assay: FabCys affinity (Biacore per paragraph 323)
# [8] = molecular target: T4, human Natriuretic Peptide Receptor 1 …; assay: FabCys, parental value by Biacore, as in Table 5
# hNPR1-ANP complex [9] = molecular target: T5, hNPR1-ANP complex; assay: FabCys, parental value by Biacore, as in Table 5
# rat NPR1 (rNPR1) [10] = molecular target: T6, rat NPR1 (rNPR1); assay: FabCys, parental value by Biacore, as in Table 5
# rNPR1-ANP complex [11] = molecular target: T7, rNPR1-ANP complex; assay: FabCys, parental value by Biacore, as in Table 5
binder,measurement,setting,value
"WW03 (FabCys format) (Fab, V domains shown, Monovalent FabCys) VH: QVQLLESGGGLVQPGGSLRLSCAASGFTFSSYWMNWVRQAPGKGLEWVSAISSDGSYTYYADSVKGRFTISRDNSKNTLYLQMNSLRAEDTAVYYCARDRYSMIYSYGAGAFDYWGQGTLVTVSS VL: DIQMTQSPSSLSASVGDRVTITCRASQGISSYLAWYQQKPGKAPKLLIYTASTLQSGVPSRFSGSGSGTDFTLTISSLQPEDFATYYCMQSYEKPRTFGQGTKVEIK","cGMP conc [nM] at 2 µM FabCys, +0.075 nM ANP",[1],108 nM
same,"cGMP conc [nM] at 2 µM FabCys, without ANP",[1],32 nM
same,binding result,[2],no binding
same,binding result,[3],no binding
same,Kd,[4],1000 nM
same,Kd,hNPR1-ANP complex [5],0.1 nM
same,Kd,rat NPR1 (rNPR1) [6],2600 nM
same,Kd,rNPR1-ANP complex [7],1 nM
same,Kd,[8],1000 nM
same,Kd,hNPR1-ANP complex [9],0.1 nM
same,Kd,rat NPR1 (rNPR1) [10],2600 nM
same,Kd,rNPR1-ANP complex [11],1 nM
